According to patent US7262177B2, “Conjugates of glycosylated/galactosylated peptide, bifunctional linker, and nucleotidic monomers/polymers, and related compositions and methods of use” (priority 2000, dated 2007):
Where “and” joins values, the source holds several entries; their conditions need not be identical. Equal values may be shown once. Read-outs that look alike come from different tables or passages of the source.

Key:
[1] = molecular target: T1, thymidylate synthase (TS) (Homo sapiens, UniProt P04818); test: Thymidylate synthase activity in treated TSU cells; format: cell-based; conditions: TSU carcinoma cells, 1 μM
T1 construct: endogenous in cells; host or cells: Hep G2
Description: Thymidylate synthase inhibition results in insufficient thymidylate levels for DNA replication and can lead to intracellular signaling processes that ultimately lead to cell death. The activity of this paramount enzyme was determined based on the methods of Keyomarsi et al. (J. Biol. Chem., 268, 15142-15149 (1993)). Briefly, 10^5 Hep G2 or TSU cells were grown in culture for 48 h and then the medium was made to a concentration of 1 μM with either po 1-mer or unconjugated 5FdU. At regular intervals (24 hrs, 48 hrs, 72 hrs and 96 hrs) after treatment, the medium was removed and replaced with medium containing deoxyuridine/[^3H]-deoxyuridine mixtures. Cells were incubated at 37° C. for 30 min. Cell medium was then removed and precipitated with charcoal. The supernatant was then counted to determine the presence of [^3H]-H2O. The measurable release of [^3H] as [^3H]-H2O from deoxyuridine, 5′-monophosphate (dUMP) substrate reflects thymidylate synthase activity.

[2] = tested on: TSU carcinoma cells; test: Viability of TSU carcinoma cells; format: cell-based, human; conditions: TSU carcinoma cells treated with conjugate
[3] = Serum stability of po 1-mer conjugate, HPLC method (a), column 1; format: in vitro ADME; conditions: 37° C.; for Average Peak area / Trial Peak area: human serum
Description: (§1) Studies were carried out at physiological conditions. The analyses were accomplished using reversed-phase HPLC and PAGE methods. The raw data are presented in table format (Tables 1, 2 and 3). The serum half-life calculated is t1/2=1/k (0.693), derived from the [A]=[A0]e^−kt, where [A0] is the original amount of substrate, [A] is the measured substrate level, t is time (min), and k is the first-order rate constant.
(a) Reaction Conditions: 50 μl of human serum were added to 24 nmoles of HPLC purified po 1-mer Conjugate and incubated at 37° C. for allotted time periods (0 min, 60 min, 180 min, 360 min). Column 1: flow 1.0 ml/min, Rainin MicroSorb C18 reversed-phase column HPLC gradient: 100% NH4OAc for 10 min, then 0→100% CH3CN in 25 min. (0.1 M NH4OAc) (Table 1).

[4] = molecular target: T2, TS (Mus musculus, UniProt P07607); test: TS activity in liver of xenografted mice; format: in vivo, CD-1 nude mice; conditions: treated
T2 construct: from tissue; host or cells: liver of CD-1 nude mice
Description: Initial effects of po 1-mer treatment were noticed after about 5 weeks. Overall, however, tumors continued to grow after this point, but at a slower rate than the control. For instance, at 8 weeks post po 1-mer treatment, the average tumor weight of xenografted human hepatomas in nude CD-1 mice was about 7 g, whereas the average tumor weight of the saline control was about 15 g. Histological analysis was performed after 8 weeks in order to compare the tumors of the control cohort with the tumors of po 1-mer-treated nude mice. […] This weight loss may then be due to the tumor burden, rather than the therapeutic treatment, and was continued through week 8.
After the treatment was completed, tumors were analyzed both histologically and for TS activity. […] Therefore, it can be deduced that increasing the dose of po 1-mer increased the efficacy without increasing systemic toxicity.

[5] = Serum stability of 35S labeled po 1-mer conjugate, PAGE analysis; format: in vitro ADME; conditions: human serum, 37° C.
Description: as §1
Reaction Conditions: 2 μl of human serum were added to 200,000 cpm of dry ^35S labeled po 1-mer conjugate. Radiolabeled conjugate was incubated at 37° C. in the presence of this serum for the allotted time periods (15 min, 30 min, 60 min, 120 min, 240 min). The reaction mixture was diluted with 2 μl of H2O, then 4 μl of loading buffer. The degradation pattern was observed through autoradiography of a 20% polyacylamide gel (0.75 mm) run at 800 V for 90 min. Bands were quantified through the use of a Fujix BAS 2000 Phosphorimager (Table 3).

[6] = tested on: Hep G2 cells; test: Inhibition of Hep G2 cellular proliferation (cell counting), 1-mer conjugates; format: cell-based, human
Description: Hep G2 cells were seeded into a 48-well plate in RPMI supplemented with 10% FCS at a density of 5×10^4 cells/well. Cells were then allowed to incubate at 37° C., 95% RH, 5% CO2 for 24 hrs. After this incubation period, the maintainence medium was aspirated and cells were treated with various concentrations of neoglycoconjugate in 200 μl of RPMI supplemented with 10% FCS. Control wells were treated with 200 μl of RPMI+10% FCS alone. At 0, 24, 48, 72 and 96 hrs, six wells for each condition were washed twice with 0.5 ml of DPBS and treated with 0.5 ml of trypsin (0.25%; prepared in HBSS with 1.0 mM EDTA). Cell number for each condition were determined a using a Coulter electronic cell counter. In all cases, the extent of inhibition of proliferation increased as a function of time. […] Therefore, the type of linkage that conjugates the nucleotide analog to YEE(ahGalNAc)3 influences the ability to inhibit proliferation.
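Wherever % injected dose in LIVER is given: male CD-1 mice given radiolabeled test agent intravenously, organs removed at each time point and dissolved, radioactivity per organ measured by scintillation counting with efficiency correction.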

T2 sequence (P07607 whole entry): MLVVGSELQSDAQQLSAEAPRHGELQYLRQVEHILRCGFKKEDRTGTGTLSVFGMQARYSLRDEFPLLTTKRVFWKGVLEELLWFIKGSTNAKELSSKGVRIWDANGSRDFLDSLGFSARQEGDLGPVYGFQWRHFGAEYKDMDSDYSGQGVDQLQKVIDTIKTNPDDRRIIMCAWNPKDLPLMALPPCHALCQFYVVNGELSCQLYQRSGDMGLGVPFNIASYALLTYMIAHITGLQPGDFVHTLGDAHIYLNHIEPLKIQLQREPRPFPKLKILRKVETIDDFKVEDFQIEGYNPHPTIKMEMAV
T1 sequence (P04818 2-313 limits assumed): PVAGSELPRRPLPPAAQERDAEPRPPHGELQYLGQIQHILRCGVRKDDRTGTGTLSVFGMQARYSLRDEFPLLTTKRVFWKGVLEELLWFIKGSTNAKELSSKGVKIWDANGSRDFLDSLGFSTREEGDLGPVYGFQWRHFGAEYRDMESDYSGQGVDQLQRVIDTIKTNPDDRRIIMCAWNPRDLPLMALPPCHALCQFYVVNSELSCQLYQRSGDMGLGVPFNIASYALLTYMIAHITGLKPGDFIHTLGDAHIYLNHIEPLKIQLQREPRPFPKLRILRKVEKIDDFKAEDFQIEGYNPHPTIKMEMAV

Question: What does the source list for CC(=O)N[C@H]1[C@H](OCCCCCCNC(=O)CC[C@H](NC(=O)CC[C@H](NC(=O)[C@H](Cc2ccc(O)cc2)NC(=O)C2CCC(CN3C(=O)CC(SCCCCCCOP(=O)(O)OC[C@H]4O[C@@H](n5cc(F)c(=O)[nH]c5=O)C[C@@H]4O)C3=O)CC2)C(=O)NCCCCCCO[C@@H]2O[C@H](CO)[C@H](O)[C@H](O)[C@H]2NC(C)=O)C(=O)NCCCCCCO[C@@H]2O[C@H](CO)[C@H](O)[C@H](O)[C@H]2NC(C)=O)O[C@H](CO)[C@H](O)[C@@H]1O (stereo partly drawn) [po 1-mer, YEE(ahGalNAc)3-SMCC-poFU]?
Answer: % injected dose in LIVER (15 MIN after tail vein i.v.): Fifty-seven; % injected dose in LIVER (60 MIN after tail vein i.v.): 25%; % injected dose in LIVER (480 MIN after tail vein i.v.): virtually no; inhibition of TS activity [1]: no inhibitory effect; viability of cells [2]: not affected; Average Peak area ([3]; 0 min): 17.78; Trial Peak area ([3]; 0 min, listed as po 1-mer Conjugate): 17.65 and 17.92; Average Peak area ([3]; 60 min): 13.77; Trial Peak area ([3]; 60 min, listed as po 1-mer Conjugate): 15.11 and 12.43; Average Peak area ([3]; 180 min): 10.17; Trial Peak area ([3]; 180 min, listed as po 1-mer Conjugate): 9.356 and 10.9908; Average Peak area ([3]; 360 min): 11.4; Trial Peak area ([3]; 360 min): 11.4; half-life at 480 µM ([3]; human, serum, HPLC (a), read-out: serum t1/2): 9.62 h; TS activity, COUNTS/MG PROTEIN ([4]; weekly 10 mg/kg): 19718 counts/mg protein; TS activity, COUNTS/MG PROTEIN ([4]; weekly 15 mg/kg): 18989 counts/mg protein; Normalized Area ([5]; 0 min): 0; Pixel Area ([5]; 0 min): 42.57; Standardized Area ([5]; 0 min): 1; Normalized Area ([5]; 15 min): 0.1486; Pixel Area ([5]; 15 min): 57.43; Standardized Area ([5]; 15 min): 0.8514; Normalized Area ([5]; 30 min): 0.2404; Pixel Area ([5]; 30 min): 66.61; Standardized Area ([5]; 30 min): 0.7596; Normalized Area ([5]; 60 min): 0.3435; Pixel Area ([5]; 60 min): 76.92; Standardized Area ([5]; 60 min): 0.6565; Normalized Area ([5]; 120 min): 0.39; Pixel Area ([5]; 120 min): 81.57; Standardized Area ([5]; 120 min): 0.61; Normalized Area ([5]; 240 min): 0.3756; Pixel Area ([5]; 240 min): 80.13; Standardized Area ([5]; 240 min): 0.6244; inhibition of proliferation ([6]; 1 μM, compared to untreated control, listed as po-linked conjugate): 64%; more active than the ps-linked conjugate ([6]; in vitro proliferation of Hep G2 cells): approximately 30%
